This note sets out measurements from article PMC9546566.

For this experiment, the target named is CRY1(Human)-3×FLAG (human) (UniProt Q16526). Briefly: co-IP.
Chain of UniProt Q16526 (Q16526 whole entry): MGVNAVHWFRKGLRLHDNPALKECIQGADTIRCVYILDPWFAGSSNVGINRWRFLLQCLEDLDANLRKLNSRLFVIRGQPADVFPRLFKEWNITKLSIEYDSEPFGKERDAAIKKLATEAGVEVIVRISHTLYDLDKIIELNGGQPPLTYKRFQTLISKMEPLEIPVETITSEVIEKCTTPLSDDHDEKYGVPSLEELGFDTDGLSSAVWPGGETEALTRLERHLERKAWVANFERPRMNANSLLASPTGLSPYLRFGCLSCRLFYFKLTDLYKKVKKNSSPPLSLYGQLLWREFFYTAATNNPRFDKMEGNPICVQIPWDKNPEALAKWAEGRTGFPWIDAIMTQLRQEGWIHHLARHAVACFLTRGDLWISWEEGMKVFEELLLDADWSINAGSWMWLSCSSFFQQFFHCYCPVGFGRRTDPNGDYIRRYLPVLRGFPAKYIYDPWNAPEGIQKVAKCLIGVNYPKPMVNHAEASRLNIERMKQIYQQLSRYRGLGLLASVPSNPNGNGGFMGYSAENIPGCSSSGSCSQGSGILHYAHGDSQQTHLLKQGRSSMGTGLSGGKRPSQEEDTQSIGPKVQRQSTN

PER2(Loris)-3×HA (natural protein) had an ability to bind with CRY in co-IP (quantity and unit not named) of 35.2.
